Source: paper PMC10397247

Assays:
O12 = target: T1, O12; experiment: two-hybrid library CC0; conditions: mean of both orientations;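 note: natural log of median RNA to DNA barcode read ratio; higher means stronger binding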
T1 chain: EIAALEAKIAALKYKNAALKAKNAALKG

O13 = target: T2, O13; experiment: two-hybrid library CC0; conditions: mean of both orientations;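 note: natural log of median RNA to DNA barcode read ratio; higher means stronger binding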
T2 chain: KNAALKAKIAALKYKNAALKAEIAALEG

O14 = target: T3, O14; experiment: two-hybrid library CC0; conditions: mean of both orientations;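 note: natural log of median RNA to DNA barcode read ratio; higher means stronger binding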
T3 chain: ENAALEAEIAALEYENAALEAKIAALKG

O15 = target: T4, O15; experiment: two-hybrid library CC0; conditions: mean of both orientations;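 note: natural log of median RNA to DNA barcode read ratio; higher means stronger binding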
T4 chain: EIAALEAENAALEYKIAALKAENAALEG

O16 = target: T5, O16; experiment: two-hybrid library CC0; conditions: mean of both orientations;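 note: natural log of median RNA to DNA barcode read ratio; higher means stronger binding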
T5 chain: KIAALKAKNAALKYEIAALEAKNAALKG

O2 = target: T6, O2; experiment: two-hybrid library CC0; conditions: mean of both orientations;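 note: natural log of median RNA to DNA barcode read ratio; higher means stronger binding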
T6 chain: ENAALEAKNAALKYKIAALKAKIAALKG

O3 = target: T7, O3; experiment: two-hybrid library CC0; conditions: mean of both orientations
T7 chain: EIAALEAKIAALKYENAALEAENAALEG

O4 = target: T8, O4; experiment: two-hybrid library CC0; conditions: mean of both orientations
T8 chain: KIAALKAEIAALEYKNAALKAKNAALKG

O5 = target: T9, O5; experiment: two-hybrid library CC0; conditions: mean of both orientations
T9 chain: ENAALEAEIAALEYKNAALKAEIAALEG

O6 = target: T10, O6; experiment: two-hybrid library CC0; conditions: mean of both orientations
T10 chain: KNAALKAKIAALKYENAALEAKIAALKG

O7 = target: T11, O7; experiment: two-hybrid library CC0; conditions: mean of both orientations
T11 chain: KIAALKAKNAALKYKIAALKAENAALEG

O8 = target: T12, O8; experiment: two-hybrid library CC0; conditions: mean of both orientations
T12 chain: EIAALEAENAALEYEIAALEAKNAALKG

O9 = target: T13, O9; experiment: two-hybrid library CC0; conditions: mean of both orientations
T13 chain: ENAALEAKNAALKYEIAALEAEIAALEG

4H1109-AA = target: T14, 4H1109-AA; experiment: two-hybrid library CCmax
T14 chain: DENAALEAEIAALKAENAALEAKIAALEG

4H1146-AA = target: T15, 4H1146-AA; experiment: two-hybrid library CCmax; conditions: mean of both orientations
T15 chain: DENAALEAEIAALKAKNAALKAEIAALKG

4H1348-AA = target: T16, 4H1348-AA; experiment: two-hybrid library CCmax; conditions: mean of both orientations
T16 chain: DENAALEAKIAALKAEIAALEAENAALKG

4H1391-AA = target: T17, 4H1391-AA; experiment: two-hybrid library CCmax; conditions: mean of both orientations
T17 chain: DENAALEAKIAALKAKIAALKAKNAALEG

4H146-AA = target: T18, 4H146-AA; experiment: two-hybrid library CCmax; conditions: mean of both orientations
T18 chain: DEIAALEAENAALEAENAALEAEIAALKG

4H1809-AA = target: T19, 4H1809-AA; experiment: two-hybrid library CCmax; conditions: mean of both orientations
T19 chain: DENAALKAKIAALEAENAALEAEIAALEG

4H1854-AA = target: T20, 4H1854-AA; experiment: two-hybrid library CCmax; conditions: mean of both orientations
T20 chain: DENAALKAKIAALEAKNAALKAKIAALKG

4H189-AA = target: T21, 4H189-AA; experiment: two-hybrid library CCmax; conditions: mean of both orientations
T21 chain: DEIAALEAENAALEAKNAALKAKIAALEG

4H2248-AA = target: T22, 4H2248-AA; experiment: two-hybrid library CCmax; conditions: mean of both orientations
T22 chain: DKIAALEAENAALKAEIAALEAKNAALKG

4H2283-AA = target: T23, 4H2283-AA; experiment: two-hybrid library CCmax; conditions: mean of both orientations
T23 chain: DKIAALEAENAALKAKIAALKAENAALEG

4H2713-AA = target: T24, 4H2713-AA; experiment: two-hybrid library CCmax; conditions: mean of both orientations
T24 chain: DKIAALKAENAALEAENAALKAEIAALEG

4H2742-AA = target: T25, 4H2742-AA; experiment: two-hybrid library CCmax; conditions: mean of both orientations
T25 chain: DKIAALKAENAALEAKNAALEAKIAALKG

4H2948-AA = target: T26, 4H2948-AA; experiment: two-hybrid library CCmax; conditions: mean of both orientations
T26 chain: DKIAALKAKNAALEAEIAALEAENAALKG

4H2991-AA = target: T27, 4H2991-AA; experiment: two-hybrid library CCmax; conditions: mean of both orientations
T27 chain: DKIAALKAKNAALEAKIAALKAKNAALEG

4H3029-AA = target: T28, 4H3029-AA; experiment: two-hybrid library CCmax; conditions: mean of both orientations
T28 chain: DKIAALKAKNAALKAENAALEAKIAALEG

4H3066-AA = target: T29, 4H3066-AA; experiment: two-hybrid library CCmax; conditions: mean of both orientations
T29 chain: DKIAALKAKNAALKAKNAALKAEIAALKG

4H3102-AA = target: T30, 4H3102-AA; experiment: two-hybrid library CCmax; conditions: mean of both orientations
T30 chain: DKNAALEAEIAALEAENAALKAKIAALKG

4H3121-AA = target: T31, 4H3121-AA; experiment: two-hybrid library CCmax; conditions: mean of both orientations
T31 chain: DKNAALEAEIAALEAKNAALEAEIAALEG

4H3417-AA = target: T32, 4H3417-AA; experiment: two-hybrid library CCmax; conditions: mean of both orientations
T32 chain: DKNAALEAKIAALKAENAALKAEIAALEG

4H3446-AA = target: T33, 4H3446-AA; experiment: two-hybrid library CCmax; conditions: mean of both orientations
T33 chain: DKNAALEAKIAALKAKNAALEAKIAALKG

4H3591-AA = target: T34, 4H3591-AA; experiment: two-hybrid library CCmax
T34 chain: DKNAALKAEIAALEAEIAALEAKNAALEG

4H3628-AA = target: T35, 4H3628-AA; experiment: two-hybrid library CCmax; conditions: mean of both orientations
T35 chain: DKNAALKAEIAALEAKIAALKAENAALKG

4H3666-AA = target: T36, 4H3666-AA; experiment: two-hybrid library CCmax; conditions: mean of both orientations
T36 chain: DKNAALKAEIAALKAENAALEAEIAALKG

4H3709-AA = target: T37, 4H3709-AA; experiment: two-hybrid library CCmax; conditions: mean of both orientations
T37 chain: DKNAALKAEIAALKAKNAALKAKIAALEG

4H391-AA = target: T38, 4H391-AA; experiment: two-hybrid library CCmax; conditions: mean of both orientations
T38 chain: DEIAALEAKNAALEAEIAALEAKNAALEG

4H3920-AA = target: T39, 4H3920-AA; experiment: two-hybrid library CCmax; conditions: mean of both orientations
T39 chain: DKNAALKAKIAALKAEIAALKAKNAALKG

4H3939-AA = target: T40, 4H3939-AA; experiment: two-hybrid library CCmax; conditions: mean of both orientations
T40 chain: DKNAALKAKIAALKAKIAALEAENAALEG

4H428-AA = target: T41, 4H428-AA; experiment: two-hybrid library CCmax; conditions: mean of both orientations
T41 chain: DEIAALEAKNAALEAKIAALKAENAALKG

4H478-AA = target: T42, 4H478-AA; experiment: two-hybrid library CCmax; conditions: mean of both orientations
T42 chain: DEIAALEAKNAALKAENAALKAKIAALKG

4H497-AA = target: T43, 4H497-AA; experiment: two-hybrid library CCmax; conditions: mean of both orientations
T43 chain: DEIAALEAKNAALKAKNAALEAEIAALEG

4H656-AA = target: T44, 4H656-AA; experiment: two-hybrid library CCmax; conditions: mean of both orientations
T44 chain: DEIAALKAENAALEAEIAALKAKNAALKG

4H675-AA = target: T45, 4H675-AA; experiment: two-hybrid library CCmax; conditions: mean of both orientations
T45 chain: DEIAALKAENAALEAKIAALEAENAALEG

4H971-AA = target: T46, 4H971-AA; experiment: two-hybrid library CCmax; conditions: mean of both orientations
T46 chain: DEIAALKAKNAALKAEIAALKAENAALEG

## EIAALEAKIAALKYKNAALKAKNAALKG [O12]
O12
  interaction score: -2.79
O13
  interaction score: -2.79
O14
  interaction score: -2.03
O15
  interaction score: -2.78
O16
  interaction score: -2.78
O2
  interaction score: -2.79
O3
  interaction score: 0.0458
O4
  interaction score: -2.22
O5
  interaction score: -2.71
O6
  interaction score: -2.7
O7
  interaction score: -2.84
O8
  interaction score: -2.29
O9
  interaction score: -2.71

## DENAALEAEIAALKAENAALEAKIAALEG [4H1109-AA]
4H1109-AA
  interaction score: 0.484
4H1146-AA
  interaction score: 1.4
4H1348-AA
  interaction score: -1.31
4H1391-AA
  interaction score: -1.71
4H146-AA
  interaction score: -1.63
4H1809-AA
  interaction score: -1.32
4H1854-AA
  interaction score: 1.5
4H189-AA
  interaction score: -0.821
4H2248-AA
  interaction score: -0.482
4H2283-AA
  interaction score: -0.782
4H2713-AA
  interaction score: -1.49
4H2742-AA
  interaction score: -1.33
4H2948-AA
  interaction score: -1.16
4H2991-AA
  interaction score: -0.637
4H3029-AA
  interaction score: -0.926
4H3066-AA
  interaction score: -0.41
4H3102-AA
  interaction score: 1.35
4H3121-AA
  interaction score: -0.8
4H3417-AA
  interaction score: 0.592
4H3446-AA
  interaction score: -0.106
4H3591-AA
  interaction score: -1.05
4H3628-AA
  interaction score: -1.06
4H3666-AA
  interaction score: 0.67
4H3709-AA
  interaction score: 2.13
4H391-AA
  interaction score: -1.46
4H3920-AA
  interaction score: -1.35
4H3939-AA
  interaction score: -1.76
4H428-AA
  interaction score: -1.21
4H478-AA
  interaction score: -1.55
4H497-AA
  interaction score: -1.77
4H656-AA
  interaction score: -1.33
4H675-AA
  interaction score: -0.943
4H971-AA
  interaction score: 0.0745
